Source: the supplement of paper PMC10126150
± gives the standard deviation of the averaged measurements.

Test system: ATP
Assay: switch fluorescence ratio, 500 uM ATP over buffer (Cy3 cluster intensity, sum of 5 cycles each) (fold (ratio)); higher = stronger signal-on switching upon ATP binding; sequences stand for … in TCGTCGGCAGCGTCAGATGTGTATAAGAGACAGTTTTTTTTTTTTTTTTTTTTTTTTT…TC
Conditions: aptamer strand: ATP DNA aptamer (quencher-CACCTGGGGGAGTATTGCGGAGGAAGG + anchor), 100 nM annealed; ATP concentration: 500 uM
Summary of the method: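 The fluorescence ratio divides summed target-cycle Cy3 intensity by summed buffer-cycle Cy3 intensity for each cluster and is averaged per switch-domain sequence. Cy3-labelled switching-strand clusters on a modified Illumina MiSeq flow-cell were annealed to 100 nM quencher-labelled ATP aptamer, then imaged in selection buffer and again after 15 min with 500 uM ATP at 22 °C. Five such cycles were run, with NaOH stripping and re-annealing between them, and clusters outside 100-1000 RFU were excluded.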
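Further: ATP exposure 15 min at 22 °C before imaging.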

| Sequence | switch fluorescence ratio |
| --- | --- |
| AGTCCGGGAT | 1.07 ± 0.044 |
| AGTCCGTGCT | 1.05 ± 0.044 |
| AGTCCTTAAG | 1 ± 0.025 |
| AGTCGAAAGC | 1.01 ± 0.059 |
| AGTCGACTTT | 0.997 ± 0.011 |
| AGTCGCCTTT | 1.02 ± 0.056 |
| AGTCGGCGGA | 0.998 ± 0.014 |
| AGTCGGGAGG | 0.945 ± 0.062 |
| AGTCGGTAGG | 1.02 ± 0.012 |
| AGTCGGTGGA | 1 ± 0.011 |
| AGTCGTGGGC | 0.98 ± 0.041 |
| AGTCGTGTGT | 0.971 ± 0.046 |
| AGTCGTTGGA | 0.96555 ± 0.00011 |
| AGTCTAGATA | 1.0302 ± 0.00084 |
| AGTCTGAGCG | 1.03 ± 0.024 |
| AGTCTGGGGA | 0.99 ± 0.015 |
| AGTCTTAATA | 0.986 ± 0.034 |
| AGTGACCTAG | 1.017 ± 0.0039 |
| AGTGACGCGT | 1.007 ± 0.0033 |
| AGTGACTTTT | 0.9961 ± 0.0089 |
| AGTGAGAATT | 1.013 ± 0.01 |
| AGTGAGCAGG | 1.11 ± 0.015 |

| Sequence | switch fluorescence ratio |
| --- | --- |
| AGTGATTGCA | 1.007 ± 0.004 |
| AGTGCACGTG | 1 ± 0.061 |
| AGTGCATTCT | 0.995 ± 0.049 |
| AGTGCCGGCA | 1.02 ± 0.051 |
| AGTGCGCTAT | 1.03 ± 0.01 |
| AGTGCGGAAG | 1.04 ± 0.066 |
| AGTGCGTCTT | 1.01 ± 0.021 |
| AGTGCTGATG | 0.998 ± 0.02 |
| AGTGCTGCGA | 1.02 ± 0.044 |
| AGTGCTGTTC | 0.929 ± 0.082 |
| AGTGGAAATT | 1.01 ± 0.049 |
| AGTGGACAGC | 1 ± 0.031 |
| AGTGGACTAG | 0.989 ± 0.026 |
| AGTGGAGCGG | 0.995 ± 0.016 |
| AGTGGAGGT | 0.97 ± 0.041 |
| AGTGGCACCG | 1.01 ± 0.015 |
| AGTGGCATTA | 0.985 ± 0.028 |
| AGTGGCCGTC | 0.974 ± 0.051 |
| AGTGGCGTTC | 1.01 ± 0.073 |
| AGTGGCTATC | 1.01 ± 0.018 |
| AGTGGGAGAG | 1.02 ± 0.06 |
| AGTGGGAGTA | 1.05 ± 0.052 |

| Sequence | switch fluorescence ratio |
| --- | --- |
| AGTGGGGGGC | 0.998 ± 0.02 |
| AGTGGGGGTA | 0.995 ± 0.028 |
| AGTGGGTATT | 1.01 ± 0.016 |
| AGTGGGTTCA | 0.9842 ± 0.0034 |
| AGTGGTCCTT | 0.974 ± 0.047 |
| AGTGGTGGG | 1.02 ± 0.068 |
| AGTGGTGGGG | 0.966 ± 0.014 |
| AGTGGTTCGC | 1.01 ± 0.024 |
| AGTGGTTGAA | 0.99 ± 0.028 |
| AGTGTAAAAA | 1.04 ± 0.078 |
| AGTGTAAAGG | 0.991 ± 0.076 |
| AGTGTGATCA | 0.9859 ± 0.008 |
| AGTGTGCGGT | 0.9491 ± 0.0089 |
| AGTGTGTCGG | 0.974 ± 0.067 |
| AGTGTGTCTT | 0.9877 ± 0.004 |
| AGTGTGTTAT | 0.974 ± 0.011 |
| AGTGTTAGTT | 1 ± 0.024 |
| AGTTAAGGCC | 1.09 ± 0.092 |
| AGTTAATGTT | 1.01 ± 0.0026 |
| AGTTACAGCT | 1.03 ± 0.032 |
| AGTTACAGGG | 1.05 ± 0.019 |
| AGTTAGACGA | 1.01 ± 0.013 |

| Sequence | switch fluorescence ratio |
| --- | --- |
| AGTTAGGGCA | 0.988 ± 0.042 |
| AGTTAGGGGT | 0.987 ± 0.02 |
| AGTTAGGGTC | 1 ± 0.012 |
| AGTTAGGTAG | 0.9939 ± 0.0081 |
| AGTTAGTCTG | 1.01 ± 0.04 |
| AGTTAGTGAC | 1.02 ± 0.024 |
| AGTTATAAGT | 0.979 ± 0.01 |
| AGTTATAATT | 1.005 ± 0.0076 |
| AGTTATATGT | 0.985 ± 0.037 |
| AGTTATCAGG | 1.06 ± 0.024 |
| AGTTATTAGG | 1.02 ± 0.032 |
| AGTTCAGTAT | 0.983 ± 0.019 |
| AGTTCGGGGA | 0.992 ± 0.014 |
| AGTTCGTAGA | 0.966 ± 0.048 |
| AGTTGAGCAG | 1.02 ± 0.021 |
| AGTTGAGGGG | 0.985 ± 0.034 |
| AGTTGATCCA | 0.982 ± 0.015 |
| AGTTGCGGGA | 1.0114 ± 0.00031 |
| AGTTGGAAAA | 0.997 ± 0.01 |
